Reference: patent EP3069729A1 (Sequoia Sciences, Inc., dated 2016)

Target: T1, horseradish peroxidase (HRP) (UniProt P00433 31-338)
T1 sequence: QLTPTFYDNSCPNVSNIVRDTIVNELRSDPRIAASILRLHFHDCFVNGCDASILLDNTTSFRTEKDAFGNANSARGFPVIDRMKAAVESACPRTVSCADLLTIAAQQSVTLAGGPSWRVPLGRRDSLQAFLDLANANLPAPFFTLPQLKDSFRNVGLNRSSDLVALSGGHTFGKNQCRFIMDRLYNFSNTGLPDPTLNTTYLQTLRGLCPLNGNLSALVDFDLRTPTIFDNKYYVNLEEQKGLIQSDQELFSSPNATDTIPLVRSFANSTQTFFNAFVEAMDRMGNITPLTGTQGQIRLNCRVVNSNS
Assay: in vitro mannose binding potency assay; inferred from the Q133K FimCH complex

B1: FimC (other)
chain: GVALGATRVIYPAGQKQVQLAVTNNDENSTYLIQSWVENADGVKDGRFIVTPPLFAMKGKKENTLRILDATNNQLPQDRESLFWMNVKAIPSMDKSKLTENTLQLAIISRIKLYYRPAKLALPPDQAAEKLRFRRSANSLTLINPTPYYLTVTELNAGTRVLENALVPPMGESAVKLPSDAGSNITYRTINDYGALTPKMTGVME
notes: also called FimC protein
binding result: no binding
